A word on the stoichiometry N: it is the number of molecules, sites or subunits per partner or assembly.

Bridge positions count the residues as written; N and C are the ends. Square brackets hold non-standard residues; d marks the D form. Ends that are not written are not given here. Gla = N[C@@H](CC(C(=O)O)C(=O)O)C(=O)O

Series [1] addresses osteocalcin_(17-49) proteolysis fragment (bovine). The series can be described thus: native MS; ESI-IMS-MS of the limited proteolysis mixture of full length calcium-bound holo-osteocalcin at neutral pH (enzyme:substrate 1:300, ammonium acetate); dimer seen as 6+ ions in the drift time distribution of the 3+ ions.
Series [2] deals with the molecule itself. Nature of the series: native MS; ESI-IMS-MS (nanoESI, travelling wave ion mobility), pH 7, 20 mM ammonium acetate (methods) or 1:1 5 mM ammonium acetate: ammonium formate; protein alone and with Ca^2+, Cu^+ or Zn^2+ salt at protein:salt 1:10; dimer told apart from monomer by drift time and isotope pattern; dimer peak increased significantly with metal ions.

Consider “osteocalcin_(17-49) proteolysis fragment (domain or fragment)”, for which the stoichiometry N in series [1] stood at 2.

B1: bovine osteocalcin (natural protein, UniProt P02820 52-100, looked up)
chain: YLDHWLGAPAPYPDPL[Gla]PKR[Gla]VC[Gla]LNPDCDELADHIGFQEAYRRFYGPV
modifications: disulfide 23-29
notes: also called apo-osteocalcin; apo-OST; source: purified from bovine bone tissue (EDTA extraction, size exclusion and ion exchange chromatography)
B1: the “stoichiometry N” value in series [2] stood at 2.
